B1: CPEB3 Ribozyme (parent)
chain: UAACAGGGGGCCACAGCAGAAGCGUUCACGUCGCAGCCCCUGUCAGAUUCUGGUGAAUCUGCGAAUUCUGCUGUAUAUCUC

This data set covers variants of B1. The experiment in a line: self-cleavage, relative activity (ratio to wild type); higher = more cleavage; in vitro, sequencing. The gist of the method: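 Libraries of CPEB3 self-cleaving ribozyme mutants came from rounds of error-prone PCR and carried barcodes, which DNA sequencing matched to variants. In vitro transcription used T7 RNA polymerase at 37°C for 5 hours, with a further 15 min in DNase I before EDTA stopped the reaction; the ribozymes cleaved during both steps. The RNA was reverse transcribed with template switching and sequenced on Illumina. Relative activity is the cleaved/total read fraction of a variant divided by that of the unmutated ribozyme, averaged over three batches with at least 5 reads.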
Consider UAACAGGGGGCCACAGCAGAAACGUUCACGUCGCAGCCCCUGUCAGAUUCUGGUGAAUCUGCGAAUUCUGCUGUAUUUCUC [G22A A77U], for which the self-cleavage was determined as 0.1.
For UAACAGGGGGCCACAGCAGAAACGUUCACGUCGCAGACCCUGUCAGAUUCUGGUGAAUCUGCGAAUUCUGCUGUAUAUCUC [G22A C37A], the self-cleavage was determined as 0.09.
For UAACAGGGGGCCACAGCAGAAACGUUCACGUCGCAGCCCCUGUCAGAUUCUGGUGAAUCUGCGAAUACUGCUGUAUAUCUC [G22A U67A] the value was 0.32; for UAACAGGGGGCCACAGCAGAAACGUUCACGUCGCAGCCCCUGUCAGAUUCUGGUGAAUCUGCGAAUCCUGCUGUAUAUCUC [G22A U67C], 0.09.
For UAACAGGGGGCCACAGCAGAAACGUUCACGUCGCAGCCCCUGUCAGAUUCGGGUGAAUCUGCGAAUUCUGCUGUAUAUCUC [G22A U51G], the self-cleavage is 0.17.
In the case of UAACAGGGGGCCACAGCAGAAACGUUCACGUCGCAGCCCCUGUCAGAUUCCGGUGAAUCUGCGAAUUCUGCUGUAUAUCUC [G22A U51C], the self-cleavage was determined as 0.2.
The same measure for UAACAGGGGGCCACAGCAGAAACGUUCACGUCGCAGCCCCUGUCGGAUUCUGGUGAAUCUGCGAAUUCUGCUGUAUAUCUC [G22A A45G]: 0.14; for UAACAGGGGGCCACAGCAGAAACGUUCACGUCGCAGCCCCUGUCUGAUUCUGGUGAAUCUGCGAAUUCUGCUGUAUAUCUC [G22A A45U]: 0.11; for UAACAGGGGGCCACAGCAGAAACGUUCACGUCGCGGCCCCUGUCAGAUUCUGGUGAAUCUGCGAAUUCUGCUGUAUAUCUC [G22A A35G]: 0.68.
Consider UAACAGGGGGCCACAGCAGAAACGUUCACGUCGCUGCCCCUGUCAGAUUCUGGUGAAUCUGCGAAUUCUGCUGUAUAUCUC [G22A A35U], for which the self-cleavage was 0.19.
For UAACAGGGGGCCACAGCAGAAACGUUCACGUCGCAGCCCCUGUCAGAUCCUGGUGAAUCUGCGAAUUCUGCUGUAUAUCUC [G22A U49C] the value was 0.11.
For UAACAGGGGGCCACAGCAGAAACGAUCACGUCGCAGCCCCUGUCAGAUUCUGGUGAAUCUGCGAAUUCUGCUGUAUAUCUC [G22A U25A] the value was 0.18.
The same measure for UAACAGGGGGCCACAGCAGAAACGUUCACGUCGCAGCCCCUGUCAGAUUCUGGUGAAUCUGCAAAUUCUGCUGUAUAUCUC [G22A G63A]: 0.27; for UAACAGGGGGCCACAGCAGAUGCGUUCACGUCGCAGCCCCUGUCAGAUUCUGGUGAAUCUGCGAAUUCUGCUGUAUACCUC [A21U U78C]: 0.25; for UAACAGGGGGCCACAGCAGAUGCGUUCACGUCGCAGCCCCUGUCAGAUUCUGGUGAAUCUGCGAAUUCUGCUGUAUAACUC [A21U U78A]: 0.38.
With UAACAGGGGGCCACAGCAGAAACGUUCACGUCGCAGCCCCUGUCAGAUUCUGGUGAACCUGCGAAUUCUGCUGUAUAUCUC [G22A U58C], the self-cleavage amounted to 0.27.
UAACAGGGGGCCACAGCAGAUGCGUUCACGUCGCAGCCCCUGUCAGAUUCUGGUGAAUCUGCGAAUUCUGCUGUAAAUCUC [A21U U76A]: the self-cleavage is 0.45.
For UAACAGGGGGCCACAGCAGAUGCGUUCACGUCGCAGCCCCUGUCAGAUUCUGGUGAAUCUGCGAAUUCUGCUGUACAUCUC [A21U U76C] the value was 0.27; for UAACAGGGGGCCACAGCAGAUGCGUUCACGUCGCAGCCCCUGUCAGAUUCUGGAGAAUCUGCGAAUUCUGCUGUAUAUCUC [A21U U54A], 0.29; for UAACAGGGGGCCACAGCAGAUGCGUUCACGUCGCAGCCCCUGUCAGAUUCUGGCGAAUCUGCGAAUUCUGCUGUAUAUCUC [A21U U54C], 0.29.
For UAACAGGGGGCCACAGCAGAUGCGUUCACGUCGCAGCCCCUGUCAGAUUCUGGGGAAUCUGCGAAUUCUGCUGUAUAUCUC [A21U U54G] the value was 0.26; for UAACAGGGGGCCACAGCAGAAACGUUCACGUCGCAGCCCCUGUCAGAUUCUUGUGAAUCUGCGAAUUCUGCUGUAUAUCUC [G22A G52U], 0.38; for UAACAGGGGGCCACAGCAGAUGCGUUCACGUCGCAGCCCCUGUCAGAUUCUGGUGAAUCUGCGAAUUCUGCCGUAUAUCUC [A21U U72C], 0.53.
As for UAACAGGGGGCCACAGCAGAUGCGUUCACGUCGCAGCCCCUGUCAGAUUCUGGUGAAUCUGCGAAUUCUGCGGUAUAUCUC [A21U U72G], the self-cleavage came to 0.17.
Take UAACAGGGGGCCACAGCAGAUGCGUUCACGUCGCAGCCCCUGUCAGAUUCUGGUGAAUCUGCGAAUUCUGCAGUAUAUCUC [A21U U72A]: the self-cleavage came to 0.26.
In the case of UAACAGGGGGCCACAGCAGAAACGUUCACGUCGCAGCCCCUGUCAGAUUCUGGUGAAUCAGCGAAUUCUGCUGUAUAUCUC [G22A U60A], the self-cleavage turned out to be 0.08.
Take UAACAGGGGGCCACAGCAGAAACGUUCACGUCGCAGCCCCUGUCAGAUUCUGGUGAAUCCGCGAAUUCUGCUGUAUAUCUC [G22A U60C]: the self-cleavage amounted to 0.28.
Turning to UAACAGGGGGCCACAGCAGAAACGUACACGUCGCAGCCCCUGUCAGAUUCUGGUGAAUCUGCGAAUUCUGCUGUAUAUCUC [G22A U26A], the self-cleavage worked out at 0.38.
Consider UAACAGGGGGCCACAGCAGAAACGUCCACGUCGCAGCCCCUGUCAGAUUCUGGUGAAUCUGCGAAUUCUGCUGUAUAUCUC [G22A U26C], for which the self-cleavage was determined as 0.19.
For the variant UAACAGGGGGCCACAGCAGAUGCGUUCACGUCGCAGCCCCUGUCAGAUUCUGGUGAAACUGCGAAUUCUGCUGUAUAUCUC [A21U U58A], the self-cleavage came out at 0.37.
The same measure for UAACAGGGGGCCACAGCAGAUGCGUUCACGUCGCAGCCCCUGUCAGAUUCUGGUGAACCUGCGAAUUCUGCUGUAUAUCUC [A21U U58C]: 0.12; for UAACAGGGGGCCACAGCAGAAACGUUCACGUCGCAGCCCCUGUCAGAUUCUGGUGAAUCUGCGUAUUCUGCUGUAUAUCUC [G22A A64U]: 0.32.
For UAACAGGGGGCCACAGCAGAAACGUUCACGUCGCAGCCCCUGUCAGAUUCUGGUGAAUCUGCGGAUUCUGCUGUAUAUCUC [G22A A64G] the value was 0.24.
As to UAACAGGGGGCCACAGCAGAAACGUUCACGUCGCAGCCCCUGACAGAUUCUGGUGAAUCUGCGAAUUCUGCUGUAUAUCUC [G22A U43A], the self-cleavage was 0.38.
